{"source": "patent US20210292393A1", "settings_in_all_cases": "remark: other sources report otherwise", "key": {"[1]": {"target": "SARS-CoV-2 full length spike protein, V483A mutant, expressed on CHO cells (SARS-CoV-2), P0DTC2"}, "[2]": {"target": "SARS-CoV-2 full length spike protein, D614G mutant, expressed on CHO cells (SARS-CoV-2), P0DTC2"}, "[3]": {"target": "SARS-CoV-2 full length spike protein, V367F mutant, expressed on CHO cells (SARS-CoV-2), P0DTC2"}, "[4]": {"target": "SARS-CoV-2 full length spike protein, V483A mutant (SARS-CoV-2), P0DTC2"}}, "note": "Several values for one entry are separate records, joined by “and”; a condition that tells them apart may be missing. Equal entries are not always repeated."}
{"binder": "antibody 389 (antibody, V domains shown) VH: QVQLVESGGGVVQPGRSLRLSCAASGFTFSSYAMHWVRQAPGKGLEWVAVISYDGSNKYYADSVKGRFTISRDNSKNTLYLQMNSLRAEDTAVYYCASQGRMYVRGVDYGVYWGQGTLVTVSS VL: NFMLTQPHSVSESPGKTVTISCTGSSGSIASNYVQWYQQRPGSAPTTVIYEDNQRPSGVPDRFSGSIDSSSNSASLTISGLKTEDEADYYCQSYDSSKISHAVFGGGTQLTVL", "values": [{"measurement": "median fluorescence fold over isotype control (fold over isotype)", "setting": "[1]", "result": 1.24}]}
{"binder": "antibody 383 (antibody, V domains shown) VH: EVQLVESGGGLVQPGGSLRLSCAASGFTFSSYDMHWVRQATGKGLEWVSTIGTAGDTYYPGSVKGRFTISRENAKNSLYLQMNSLRAGDTAVYYCARVAYSSSFVYWYFDLWGRGTLVTVSS VL: DIQMTQSPSSLSASIGDRVTITCRASQSISSYLNWYQQKPGKAPNLLIYAASSLQSGVPSRFSGSGSGTDFTLTISSLQPEDFATYYCQQSYTTPLYTFGQGTKLEIK", "values": [{"measurement": "median fluorescence fold over isotype control (fold over isotype)", "setting": "[2]", "result": 6.38}, {"measurement": "median fluorescence fold over isotype control (fold over isotype)", "setting": "[3]", "result": 11.4}, {"measurement": "median fluorescence fold over isotype control (fold over isotype)", "setting": "[1]", "result": 1.8}]}
{"binder": "antibody 374 (antibody, V domains shown) VH: QVQLQESGPGLVKPSGTLSLTCAVSGGSISSSKWWSWVRQPPGKGLEWIGEIYHSGSTNYNPSLKSRVTISVDKSKNQFSLKLSSVTAADTAVYYCARRELGEGTFTYWGQGTLVTVSS VL: not shown", "values": [{"measurement": "median fluorescence fold over isotype control (fold over isotype)", "setting": "[1]", "result": 1.22}]}
{"binder": "antibody 464 (antibody, V domains shown) VH: QVQLVQSGAEVKKPGASVKVSCKVSGYTLTELSMHWVRQAPGKGLEWMGGFDPEDGETIYAQKFQGRVTMTEDTSTDTAYMELSSLRSEDTAVYYCATARAFGVANWFDPWGQGTLVTVSS VL: QSVLTQPPSASGTPGQRVTISCSGSSSNIGSNYVYWYQQLPGTAPKLLIYRNNQRPSGVPDRFSGSKSGTSASLAISGLRSEDEADYYCAAWDDSLSGLYVFGTGTKVTVL", "values": [{"measurement": "median fluorescence intensity, fold over isotype control (fold over isotype)", "setting": "[2]", "result": 0.86}, {"measurement": "median fluorescence intensity, fold over isotype control (fold over isotype)", "setting": "[3]", "result": 1.04}, {"measurement": "median fluorescence intensity, fold over isotype control (fold over isotype)", "setting": "[1]", "result": "1.04 and 1"}]}
{"binder": "antibody 524 (antibody, V domains shown) VH: QVQLVESGGGVVQPGRSLRLSCAASGFTFSSYAMHWVRQAPGKGLEWVAVISYDGSNKYYADSVKGRFTISRDNSKNTLYLQMNSLRAEDTAVYYCAKAGGGSYYRGFDYWGQGTLVTVSS VL: QSVLTQPPSVSAAPGQKVTISCSGSNSNIGNNYVSWYQQLPGSAPKLLIYDNDKRPSGIPDRFSGSKSGTSATLGITGLQTGDEADYYCGAWDSSLTALVFGGGTKLTVL", "values": [{"measurement": "median fold over isotype (fold over isotype)", "setting": "[4]", "result": "0.99 and 1.25"}]}
{"binder": "antibody 490 (antibody, V domains shown) VH: QVQLQESGPGLVKPSGTLSLTCAVSGGSISSSNWWSWVRQPPGKGLEWIGELYHSGSTNYNPSLKSRVTISVDKSKNQFSLKLSSVTAADTAVYYCARVGPYYYDSSGYYNYFDYWGPGTLVTVSS VL: EIVLTQSPATLSLSPGERATLSCRASQSVSSYLAWYQQKPGQAPRLLIYDASNRATGIPARFSGSGSGTDFTLTISSLEPEDFAVYYCQQRSNWPPGITFGQGTRLEIK", "values": [{"measurement": "median fluorescence intensity, fold over isotype control (fold over isotype)", "setting": "[2]", "result": 1.03}, {"measurement": "median fluorescence intensity, fold over isotype control (fold over isotype)", "setting": "[3]", "result": 1.14}, {"measurement": "median fluorescence intensity, fold over isotype control (fold over isotype)", "setting": "[1]", "result": "1.15 and 1.13 and 1.52"}]}
{"binder": "antibody 390 (antibody, V domains shown) VH: EVQLVESGGGLIQPGGSLRLSCAASGFTVSSNYMSWVRQAPGKGLEWVSIIYSGGSTYYADSVKGRFTISRDNSKNTLYLQMNSLRAEDSAVYSCATTMVRGLIISYYYGMDVWGQGTTVTVSS VL: QSALTQPASVSGSPGQSITISCTGTSSDVGGYNYVSWYQQHPGKAPKLMIYEVSNRPSGVSNRFSGSKSGNTASLTISGLQAEDEADYYCSSYTSSSTLVFGGGTKLTVL", "values": [{"measurement": "median fluorescence fold over isotype control (fold over isotype)", "setting": "[1]", "result": 1.36}]}
{"binder": "antibody 413 (antibody, V domains shown) VH: EVQLVESGGGLIQPGGSLRLSCAASGFTVSGNYMNWVRQAPGKGLEWVSVIYSGGSTYYADSVKGRFTISRANSKNTLYLQMNSLRAEDTAVYYCASTSLVRGLIILYYYGMDVWGQGTTVTVSS VL: QSALTQPASVSGSPGQSITISCTGTSSDVGGYNYVSWYQQHPGKAPKLMIYEVSNRPSGVSNRFSGSKSGNTASLTISGLQAEDEADYYCSSYTSSSTLVFGGGTKLTVL", "values": [{"measurement": "median fluorescence fold over isotype control (fold over isotype)", "setting": "[1]", "result": 1.67}]}
{"binder": "antibody 507 (antibody, V domains shown) VH: QVQLQESGPGLVKPSGTLSLTCAVSGGSISSSNWWSWVRQPPGKGLEWIGEIYHSGNTNYNPSLKSRVTISVDKSKNQFSLKLSSVTAADTAVYYCARREWLRLFDYWGQGTLVTVSS VL: QSALTQPASVSGSPGQSITISCTGTSSDVGSYNLVSWYQQHPGKAPKLMIYEVSKRPSGVSNRFSGSKSGNTASLTISGLQAEDEADYYCCSYAGSSTYVFGTGTKVTVL", "values": [{"measurement": "median fluorescence intensity, fold over isotype control (fold over isotype)", "setting": "[1]", "result": 1.12}]}
{"binder": "antibody 493 (antibody, V domains shown) VH: EVQLVESGGGLIQPGRSLRLSCAASGFTVSITYMSWVRQAPGKGLEWVSLIYSGGSSYYADSVKGRFTISRDNSKNTLYLQMNSLRAEDTAVYYCATTMVRGVIISYYYGMDVWGQGTTVTVSS VL: QSALTQPASVSGSPGQSITISCTGTSSDVGGYNYVSWYQQHPGKAPKLMIYEVSNRPSGVSNRFSGSKSGNTASLTISGLQAEDEADYYCSSYTSSSTLVFGGGTKLTVL", "values": [{"measurement": "median fluorescence intensity, fold over isotype control (fold over isotype)", "setting": "[2]", "result": 1.72}, {"measurement": "median fluorescence intensity, fold over isotype control (fold over isotype)", "setting": "[3]", "result": 4.82}, {"measurement": "median fluorescence intensity, fold over isotype control (fold over isotype)", "setting": "[1]", "result": "4.63 and 2.26"}]}
{"binder": "antibody 544 (antibody, V domains shown) VH: QVQLQQWGAGLLKPSETLSLTCAVYGGSFSGYYWSWIRQPPGKGLEWIGEINHSGSTNYNPSLKSRVTISVDTSKNQFSLKLSSVTAADTAVYYCARGFKWFGELLFGAQGTLVTVSS VL: not shown", "values": [{"measurement": "median fold over isotype (fold over isotype)", "setting": "[4]", "result": 1.58}]}
{"binder": "antibody 551 (antibody, V domains shown) VH: EVQLVESGGGLVQPGGSLRLSCAASGFTFSSYWMSWVRQAPGKGLEWVANINQDGSDKYYVDSVKGRFTISRDNAKNSLYLQMNSLRAEDTAVYYCARAPGWAAAPTFDYWGQGTLVTVSS VL: QSALTQPRSVSGSPGQSVTISCTGTSSDVGGYNYVSWYQQHPGKAPKFMIYDVSKRPSGVPDRFSGSKSGNTASLTISGLQAEDEADYYCCSYAGSYTLVVFGGGTKLTVL", "values": [{"measurement": "median fold over isotype (fold over isotype)", "setting": "[4]", "result": 1.7}]}
{"binder": "antibody 472 (antibody, V domains shown) VH: EVQLVESGGGLIQPGGSLRLSCAASGFTVSSNYMSWVRQAPGKGLEWVSVIYSGGTTHYADSVKGRFTISRDNSKNTLYLQMNSLRAEDTAVYYCANYGMDVWGQGTTVTVSS VL: SYELTQPSSVSVSPGQTARITCSGDVLAKKYARWFQQKPGQAPVLVIYKDSERPSGIPERFSGSSSGTTVTLTISGAQVEDEADYYCYSAADKVFGGGTKLTVL", "values": [{"measurement": "median fluorescence intensity, fold over isotype control (fold over isotype)", "setting": "[2]", "result": 1.22}, {"measurement": "median fluorescence intensity, fold over isotype control (fold over isotype)", "setting": "[3]", "result": 3.19}, {"measurement": "median fluorescence intensity, fold over isotype control (fold over isotype)", "setting": "[1]", "result": "2.35 and 2.49"}]}
{"binder": "antibody 485 (antibody, V domains shown) VH: QVQLQESGPGLVKPSGTLSLTCAVSGASISSSNWWSWVRQPPGKGLEWIGEIYHSGSTNYNPSLKSRVTISVDKSKNQFSLKLSSVTAADTAVYYCARRSYYGSGSYYPFDYWGQGTLVTVSS VL: QSALTQPASVSGSPGQSITISCTGTSSDVGSYNLVSWYQQHPGKAPKLMIYEGRKRPSGVSNRFSGSKSGNTASLTISGLQAEDEADYYCCSYAGSSTYVFGTGTKVTVL", "values": [{"measurement": "median fluorescence intensity, fold over isotype control (fold over isotype)", "setting": "[1]", "result": 1.11}]}
{"binder": "antibody 436 (antibody, V domains shown) VH: QVQVVESGGGVVQPGRSLRLSCAASGFTFSSYAMHWVRQAPGKGLEWVAVISYDGNNEYYVDPVKGRFTISRDNSKNTLYLQMNSLRAEDTALYYCATSREAIVVGGILDYWGQGTLVTVSS VL: DIQMTQSPSSLSASVGDRVTITCQASHDINNFLNWYQQKPGQAPKLLIYDASNLETGVPSRFSGSGSGTDFTFTISSLHPEDVATYYCQQYDGLPRYVTFGQGTKLEIR", "values": [{"measurement": "median fluorescence fold over isotype control (fold over isotype)", "setting": "[4]", "result": 0.85}]}
{"binder": "antibody 304 (antibody, V domains shown) VH: EVQLLESGGGLVQPGGSLRLSCAASGFTFSTYAMSWVRQAPGKGLEWVSAISGSGGSTYYADSVKGRFTISRDNSKNTLYLQMNSLRAEDTAVYYCASGYSPDYWGQGTLVTVSS VL: AIQMTQSPSSLSASVGDRVTITCRASQGIRNDLGWYQQKPGKAPKLLIYAASSLQSGVPSRFSGSGSGTDFTLTISSLQPEDFATYYCLQDYNYPRTFGQGTKVEIK", "values": [{"measurement": "median fluorescence intensity, fold over isotype control (fold over isotype)", "setting": "[4]", "result": 0.66}]}
{"binder": "antibody 538 (antibody, V domains shown) VH: QLQLQESGPGLVKPSETLSLTCTVSGGSISSSSYYWGWIRQPPGKGLEWIGSINYSGSTYYNPSLKSRVTISVDTSKNQFSLKLSSVTAADTAVYYCARYHDYGDDYWGQGTLVTVSS VL: QLVLTQSPSASASLGASVKLTCTLSSGHSRYAIAWHQQQPEKGPRYLMKLNSDGSHSKGDGIPDRFSGSSSGAERYLTISSLQSEDEADYYCQTWGTGIQVFGGGTKLTVL", "values": [{"measurement": "median fold over isotype (fold over isotype)", "setting": "[4]", "result": 1.48}]}
{"binder": "antibody 505 (antibody, V domains shown) VH: EVQLVESGGGLVKPGGSLRLSCAASGFTFSSYSMNWVRQAPGKGLEWVSSISSSSSYIYYADSVKGRITISRDNAKNSLYLQMNSLRAEDTAVYYCAREYPNFRAEWLLSPYGMDVWGQGTTVTVSS VL: QSALTQPASVSGSPGQSITISCTGTSSDVGSYNLVSWYQQHPGKAPKLMIYEVSKRPSGVSNRFSGSKSGNTASLTISGLQAEDEADYYCCSYAGSSTSVKVFGTGTKVTVL", "values": [{"measurement": "median fluorescence intensity, fold over isotype control (fold over isotype)", "setting": "[1]", "result": 1}]}
{"binder": "antibody 382 (antibody, V domains shown) VH: QVQLVESGGGVVQPGRSLRLSCAASGFTFSNYGMHWVRQAPGKGLEWMTVISFDGRNKYYADSVKGRFTISRDNSKNTLFLQMNSLTTEDTALYFCASGRRPRYSSGWSFDYWGQGTLVTVSS VL: DIQMTQSPSSLSASVGDRVTITCQASQDIGNYLNWYQQKLGKAPNLLIYDASNLETGVPSRFSGSGSGTDFTFTINSLQPEDTATYYCQQYDDPSITFGQGTRLEIK", "values": [{"measurement": "median fluorescence fold over isotype control (fold over isotype)", "setting": "[1]", "result": 0.88}]}
